Data as given in PMC12173652.

Molecular target: epidermal growth factor receptor (EGFR) (human (endogenous in HeLa)) (UniProt P00533)

Q: What does the source list for “pIII::EGF fusion displayed on the helper phage M13SW7-EGF (epidermal growth factor, GGGS linker, M13 minor coat protein pIII) (from UniProt P69168 19-424)”?
A: fold difference in luciferase expression (EGF^+/EGF^−), A549, mini phagemid, +TurboFect, 96 h: 9.96 fold; fold difference in luciferase expression (EGF^+/EGF^−), HeLa, full phagemid, +TurboFect, 96 h: 261 fold; fold difference in luciferase expression (EGF^+/EGF^−), HeLa, mini phagemid, +TurboFect, 96 h: 705 fold; fold difference in luciferase expression (EGF^+/EGF^−), HeLa, mini phagemid, −TurboFect, 96 h: 25.6 fold; fold difference in luciferase expression (EGF^+/EGF^−), MRC-5, full phagemid, −TurboFect, 96 h: 4.14 fold; fold difference in luciferase expression (EGF^+/EGF^−), MRC-5, mini phagemid, +TurboFect, 96 h: 5.73 fold
